Test results published in US11059855B2, “Antimicrobial peptides and methods of making and using same” (priority 2017, dated 2021).
No end group written: not given here.

Columns and labels:
[1] = Tryptophan fluorescent binding assay
From the text: To further investigate why some peptides (i.e. 7D12, 7G6, 11D12, 24F1, and 28H6) show selectivity for membrane types we measured peptide binding and secondary structural changes to vesicles containing binary mixtures of POPC and POPG lipids. FIGS. 10a-10e show the changes in the CD and tryptophan fluorescence spectra for these peptides upon addition of LUVs for whom the ratio of POPG was elevated from 0 to 100%. […] Consistent with the POPC/POPG leakage assay, these lipid selective peptides show little or no binding to POPC, which bind strongly to POPG. […] All other peptides have tryptophan fluorescence peaks around 350 nm, indicative of monomeric peptides. Addition of LUVs to 28H6 results in higher intensity and smaller width of the peak indicative of membrane binding. Remarkably, the CD spectra of 28H6 change from a helical aggregate in solution or POPC LUVs, to beta-strand conformations in the presence of anionic POPG lipids. Increasing the temperature of 28H6 with POPG vesicles can destabilize the beta-strand structure and reverse it to helix as the conformation of 28H6 with POPC (Table 8).

[2] = pH 7.1; cited from earlier work
[3] = 3-kDa dextran macromolecule release assay, POPG; assay type: biochemical; conditions: P:L = 1:1000, pH 7 phosphate buffer
[4] = system: S. aureus; test: Bacterial minimum inhibitory concentration (MIC), S. aureus; assay type: cell-based, Staphylococcus aureus; conditions: 75 μM maximum tested; NDA = not determinable
Protocol: (§1) Escherichia colt strain ATCC 25922, Staphylococcus aureus strain ATCC 25923, and Pseudomonas aeruginosa strain ATCC PAO1 were used in this study. Overnight cultures were subcultured to log phase (OD600=0.3-0.6) after which cell counts were determined by measuring the OD600 (OD600 1.0=1.5×10^8 CFU/mL for S. aureus, 5×10^8 CFU/mL for E. colt, and 2.04×10^8 CFU/mL for P. aeruginosa). Bacteria in minimal media mere added to serially diluted peptides and incubated for 3 hr, followed by the addition of full growth media. After overnight incubation, the optical density of the wells was recorded on a plate reader to determine whether they were sterilized (OD<0.08) or were at stationary phase growth (OD600>0.5). Intermediate values, which were rare, were considered positive for growth. Average minimum sterilizing concentrations were calculated from the lowest peptide concentration that sterilized the bacteria in each serial dilution. The samples were done in sextuplet.

[5] = ANTS/DPX leakage assay, POPG; assay type: biochemical; conditions: P:L = 1:1000, pH 7 phosphate buffer
Protocol: (§2) 5 mM ANTS and 12.5 mM DPX were entrapped in 0.1 μm diameter extruded vesicles with lipids. Gel filtration chromatography of Sephadex G-100 (GE Healthcare Life Sciences Inc.) was used to remove external free ANTS/DPX from LUVs with entrapped contents. […] Leakage was measured after 3 hr incubation. 10% Triton was used as the positive control to measure the maximum leakage of the vesicle. Fluorescence emission spectra were recorded using excitation wavelength (Ex: 350 nm) and emission wavelength (Em: 510 nm) for ANTS/DPX using Synergy H1 Hybrid Multi-Mode Reader.
(§3) This detects and quantifies the release of a small fluorescent dye (ANTS/DPX; MW=˜400 Da) encapsulated in LUVs after addition of library peptides. Neutral POPC LUVs serve as a simple model for mammalian membranes, while charged POPG LUVs mimic bacterial membranes enriched in anionic lipids.

[6] = system: P. aeruginosa; test: Bacterial minimum inhibitory concentration (MIC), P. aeruginosa; assay type: cell-based, Pseudomonas aeruginosa; conditions: 75 μM maximum tested; NDA = not determinable
Protocol: as §1

[7] = system: methicillin-resistant Staphylococcus aureus (MRSA); assay type: cell-based; conditions: 75 μM maximum tested; NDA = not determinable
[8] = ANTS/DPX leakage assay, POPC; assay type: biochemical; conditions: P:L = 1:1000, pH 7 phosphate buffer
Protocol: as §2, §3

[9] = Pore-size characterization by 3-kDa dextran release; assay type: biochemical; conditions: ‡Large pore for PG only
From the text: Eight LDKA peptides with different lipid selectivity and pore sizes were selected from the high-throughput screen and sequenced. […] The most common mutation is L to A, occurred 13 times and in 7 out of the 8 peptides, followed by A to L, which occurred 6 times in 5 peptides, L to D which occurred 3 times in 3 peptides, and L to P that occurred once. Lysine (K) is not favorable to be shown at the position 6, 8, 10, 12, and 13, which is the non-polar face of the helical structure. […] More specifically, the analogs only induce leakage from anionic POPG vesicles have 4-5 leucines, which is less than the analogs that can porate both POPC and POPG vesicles and have 6-7 leucines in their sequences.

[10] = Membrane selectivity from high-throughput dye leakage screen; assay type: biochemical; conditions: PC = POPC, PG = POPG
From the text: as §3

[11] = Circular dichroism secondary structure (Dichroweb), with POPG; assay type: physicochemical
Protocol: (§4) Dichroweb software analyzes the secondary structure of LDKA peptides from circular dichroism spectroscope. The table presents the percentage of each helix and strand structure at different temperature. The data are analyzed using CONTIN-LL method and Reference Set 4 (Optimised for 190-240 nm).
(§5) Peptide solutions (peptide concentration is 50 μM) were titrated with POPC and POPG LUVs (50, 100, 250, 500, 1000 μM) and the corresponding changes CD spectra collected. Analysis of these spectra using CD tools and Dichroweb provides an ensemble average of the changes in secondary structure in the presence of POPC and POPG LUVs (dichroweb.cryst.bbk.ac.uk), which gives a direct measure of the binding free energies for each peptide.

[12] = Circular dichroism secondary structure (Dichroweb), peptide only; assay type: physicochemical; conditions: 20 °C
Protocol: as §4, §5

[13] = Circular dichroism secondary structure (Dichroweb), with POPC; assay type: physicochemical
Protocol: as §4, §5

## GLLDDAKLLAKLAGW-AMIDE (GLLDDAKLLAKLAGW-NH2) [Peptide 7D12]
[1]
  Binding onto POPC: does not bind
[2]
  Solubility, DPBS pH 7.1: <0.1 mg/mL
[3]
  3-kDa Dextran release, POPG: 17%
[4]
  Minimum Inhibitory Concentration, S. aureus: no activity and NDA
[5]
  ANTS/DPX release, POPG: 103%
[6]
  Minimum Inhibitory Concentration, P. aeruginosa: no activity and NDA
[7]
  Minimum Inhibitory Concentration, MRSA: NDA
[8]
  ANTS/DPX release, POPC: 6%
[9]
  Pore size: Small
[10]
  Membrane selectivity (POPC vs POPG vesicles): PG > PC
[11]; 20 °C
  Peptide-POPG, Helix: 78%
  Peptide-POPG, Strand: 2%
[11]; 45 °C
  Peptide-POPG, Helix: 66%
  Peptide-POPG, Strand: 3%
[11]; 70 °C
  Peptide-POPG, Helix: 48%
  Peptide-POPG, Strand: 6%
[11]; 95 °C
  Peptide-POPG, Helix: 31%
  Peptide-POPG, Strand: 13%
[12]
  Peptide-only, Strand: 11%
[13]; 20 °C
  Peptide-POPC, Helix: 30%
  Peptide-POPC, Strand: 20%
[13]; 45 °C
  Peptide-POPC, Helix: 26%
  Peptide-POPC, Strand: 21%
[13]; 70 °C
  Peptide-POPC, Helix: 27%
  Peptide-POPC, Strand: 22%
[13]; 95 °C
  Peptide-POPC, Helix: 22%
  Peptide-POPC, Strand: 24%
